Test [1] concerns the target T1, human apelin receptor (human, UniProt P35414 1-380).
T1 construct: whole, on cells; also called AGTRL1; APJ
T1 sequence (looked up): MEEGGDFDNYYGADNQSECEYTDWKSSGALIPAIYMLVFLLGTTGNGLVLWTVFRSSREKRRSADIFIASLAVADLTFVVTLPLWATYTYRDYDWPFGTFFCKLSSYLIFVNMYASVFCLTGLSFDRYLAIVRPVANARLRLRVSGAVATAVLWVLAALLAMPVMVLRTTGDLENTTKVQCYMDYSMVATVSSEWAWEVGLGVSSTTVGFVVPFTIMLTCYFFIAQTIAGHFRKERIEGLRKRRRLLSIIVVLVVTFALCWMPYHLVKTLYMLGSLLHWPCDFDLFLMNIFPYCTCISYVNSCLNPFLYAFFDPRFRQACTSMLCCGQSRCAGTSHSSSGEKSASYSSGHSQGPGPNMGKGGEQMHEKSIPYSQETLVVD
The experiment in a line: radioligand competition vs [Glp65,Nle75,Tyr77][125I]apelin-13 on CHO-K1 cells expressing human apelin receptor (Cerep); Cheng-Prusoff. The procedure: Binding assays were performed by Cerep (Celle L'Evescault, France) on Chinese Hamster Ovary (CHO-K1) cells expressing the human apelin receptor. […] The results were expressed as a percent of control specific binding ((measured specific binding/control specific binding)×100) and as a percent inhibition of control specific binding (100−((measured specific binding/control specific binding)×100)) obtained in the presence of the test compounds. […] Results showing an inhibition between 20% and 50% were indicative of weak to moderate effects.

For test [2], the target named is T1, human apelin receptor. The experiment in a line: cell-based or functional assay.
In test [3] the target is T1, human apelin receptor. The experiment in a line: cell-based or functional assay. The source holds these as a separate data set.
Test [4] addresses T1, human apelin receptor. In words: binding to human left ventricle.
Test [5] deals with T1, human apelin receptor. In words: cell-based or functional assay. The source holds these as a separate data set.
Test [6] addresses T1, human apelin receptor. In words: radioligand competition vs [Glp65,Nle75,Tyr77][125I]apelin-13 on human left ventricle homogenate. The procedure:
Equilibrium was broken by centrifugation (20,000 g for 10 min, 4° C.). Pellets were washed with Tris-HCl buffer (50 mmol/L, pH 7.4, 4° C.), re-centrifuged and bound radioactivity in the final pellets counted. Data from triplicate experiments were analysed using the iterative non-linear curve fitting programs EBDA and LIGAND (KELL package, Biosoft, UK) or GraphPad Prism 6 to derive values of affinity (expressed as either the equilibrium dissociation constant KD or the negative log₁₀ of the dissociation constant, pKᵢ±sem) and receptor density (BMAX±sem in fmoles bound per mg protein).
Background: Loss of bound radioactivity is the signal in a displacement assay; it reports binding, not function.

What is called Ki is a measure of affinity in units of concentration, obtained from inhibition or displacement. One may read the Kd as the concentration at which binding is half-saturated. Read a high Kd as weaker binding.

Several values for one entry are separate records, joined by “and”; a condition that tells them apart may be missing. Equal entries are not always repeated. Where two headings read alike, the source gives them in different places. Positions of bridges follow the written chain, without caps; N, C: chain ends. Non-standard residues stand in square brackets, D forms with d. No end group written: not given here. *: point of attachment. Phe(3,4,5-F3) = N[C@@H](Cc1cc(F)c(F)c(F)c1)C(=O)O; Myristoyl = CCCCCCCCCCCCCC(=O)*; pGlu = O=C1CC[C@@H](C(=O)O)N1; Nle = CCCC[C@H](N)C(=O)O; Abu = CC[C@H](N)C(=O)O; Aib = CC(C)(N)C(=O)O

B1: MM302 (peptide)
peptide: CRPR[Nle]CHKCR[Aib]R[Nle][Phe(3,4,5-F3)]
modifications: cysteine pairing not given here
notes: also called CRPR-Nle-CHKCR-Aib-R-Nle-(3,4,5-trifluoro-)F
In the test with human apelin receptor [1], B1 returned a Ki of 17 nM.

B2: MM312 (peptide)
peptide: ARPR[Nle]CKH[Abu]R[Aib]R[Nle][Phe(3,4,5-F3)]
B2: the inhibition constant Ki in the test with human apelin receptor [1] is 190 nM and 160 nM. Besides, in the test with human apelin receptor [2], the DRx cAMP pA2 was 6.6 and 6.84.

B3: MM316 (peptide)
peptide: Myristoyl-ARPR[Nle][Abu]HK[Abu]R[Aib]R[Nle][Phe(3,4,5-F3)]
For B3, the Ki in the test with human apelin receptor [1] was 3 nM and 2.8 nM. Further, the DRx cAMP pA2 with human apelin receptor [2] is 7.41 and 7.88.

B4: MM298 (peptide)
peptide: CRPR[Nle][Abu]KHCR[Aib]R[Nle][Phe(3,4,5-F3)]
modifications: cysteine pairing not given here
B4 registered a Ki with human apelin receptor [1] of 16 nM. Besides, in the test with human apelin receptor [2], the DRx cAMP pA2 was 7.59 and 7.12; the DRx β-Arrestin pA2 worked out at 7.76.

B5: MM314 (peptide)
peptide: ARPR[Nle][Abu]KH[Abu]R[Aib]R[Nle][Phe(3,4,5-F3)]
As for B5, the Ki with human apelin receptor [1] is 10 nM and 8.9 nM. For the same molecule, the DRx cAMP pA2 in the test with human apelin receptor [2] was 6.43 and 6.71.

B6: MM54 (peptide)
peptide: CRPRLCKHCRPRLC
modifications: disulfide 1-6, 9-14
notes: Previously published macrocyclic comparator; also called cyclo(1-6)CRPRLC-KH-cyclo(9-14)CRPRLC
B6 showed a Ki with human apelin receptor [1] of 82 nM. In addition, the “DRx cAMP assay EC50 (weak agonist activity)” value with human apelin receptor [3] was 1400 nM. The same molecule displayed a dissociation constant (Kd) in the test with human apelin receptor [4] of 358 nM. Also, the “DRx cAMP pD2” value with human apelin receptor [5] is 5.86.

B7: MM299 (peptide)
peptide: CRPR[Nle]CKH[Abu]R[Aib]R[Nle][Phe(3,4,5-F3)]
modifications: cysteine pairing not given here
In the test with human apelin receptor [1], B7 had a Ki of 6.1 nM. In the test with human apelin receptor [2], the DRx cAMP pA2 was 7.32 and 6.95; the DRx β-Arrestin pA2 is 8.1 and 8.53.

B8: MM108 (peptide)
peptide: CRPRLCKHCRPRLC
notes: Linear peptide
B8 returned a Ki in the test with human apelin receptor [1] of 140 nM. Moreover, the “DRx β-Arrestin pA2” value in the test with human apelin receptor [5] was 7.41.

B9: MM193 (peptide)
peptide: CRPR[Nle]CKHCR[Aib]R[Nle][Phe(3,4,5-F3)]
modifications: cysteine pairing not given here
notes: also called CRPR-Nle-CKHCR-Aib-R-Nle-(3,4,5-trifluoro-)F
In the test with human apelin receptor [1], B9 registered a Ki of 19 nM. Further, in the test with human apelin receptor [6], the “HLV pKi” value was 6.12. The “DRx β-Arrestin pA2” value with human apelin receptor [5] amounted to 7.68.

B10: MM262 (peptide)
peptide: QRPR[Nle]CKHCR[Aib]R[Nle][Phe(3,4,5-F3)]
modifications: cysteine pairing not given here
notes: also called QRPR-Nle-CKHCR-Aib-R-Nle-(3,4,5-trifluoro-)F
In the test with human apelin receptor [1], B10 yielded an inhibition constant Ki of 34 nM. The “DRx β-Arrestin pA2” value with human apelin receptor [5] came out at 7.53.

B11: MM300 (peptide)
peptide: Myristoyl-CRPR[Nle]CKHCR[Aib]R[Nle][Phe(3,4,5-F3)]
modifications: cysteine pairing not given here
notes: also called Myristoyl-CRPR-Nle-CKHCR-Aib-R-Nle-(3,4,5-trifluoro-)F
Consider B11, for which the inhibition constant (Ki) with human apelin receptor [1] came out at 13 nM.

B12: MM107 (peptide)
peptide: CRPRLCHKCRPRLC
With B12, the Ki in the test with human apelin receptor [1] was found to be 180 nM. In addition, in the test with human apelin receptor [5], the “DRx β-Arrestin pA2” value was found to be 7.24.

B13: MM297 (peptide)
peptide: [pGlu]RPR[Nle]CKHCR[Aib]R[Nle][Phe(3,4,5-F3)]
modifications: cysteine pairing not given here
For the molecule B13, the Ki with human apelin receptor [1] was 55 nM. In the test with human apelin receptor [2], the DRx cAMP pA2 is 6.08 and 6.14; the DRx β-Arrestin pA2 turned out to be 7.38.

B14: MM313 (peptide)
peptide: Ac-ARPR[Nle]CKH[Abu]R[Aib]R[Nle][Phe(3,4,5-F3)]
On to B14, for which the Ki with human apelin receptor [1] is 53 nM and 47 nM. Besides, the DRx cAMP pA2 with human apelin receptor [2] was 6.66 and 6.92.

B15: MM315 (peptide)
peptide: Myristoyl-ARPR[Nle][Abu]KH[Abu]R[Aib]R[Nle][Phe(3,4,5-F3)]
Regarding B15, the Ki with human apelin receptor [1] was 3 nM and 2.7 nM. In the test with human apelin receptor [2], the DRx cAMP pA2 was 8.52 and 8.11.

These data come from patent publication US20240279280A1 (CAMBRIDGE ENTERPRISE, published 2024).
